Where no end group is shown, it is not given here.

The target in the test is HLA-A*24 (human). The test is described as follows: UV-ligand exchange, b2m ELISA. (In general: In an ELISA, binding on a coated surface is turned into a signal by an enzyme label.)
Turning to LYLDKATLI [… (SEQ ID No 198)], the peptide exchange yield was in the range of 50 to 75%.
As for QYLQDAYSF [… (SEQ ID No 272)], the peptide exchange yield was above 75%.
The same measure for SYALLTYMI [… (SEQ ID No 192)]: above 75%.
Next, KYMVYPQTF [… (SEQ ID No 267)]: above 75%; RYFKGLVF [RYFKGLVF (SEQ ID No 188)]: 50 to 75%; IFPQFLYQF [… (SEQ ID No 186)]: above 75%.
The same measure for LYLKLWNLI [… (SEQ ID No 214)]: 50 to 75%.
For KYIPYKYVI [… (SEQ ID No 223)], the peptide exchange yield was 50 to 75%.
Consider AYLHSHALI [… (SEQ ID No 274)], for which the peptide exchange yield is above 75%.
The molecule VHIPEVYLI [… (SEQ ID No 205)] returned a peptide exchange yield of 50 to 75%.
The molecule RYISDQLFTNF [… (SEQ ID No 278)] registered a peptide exchange yield above 75%.
IYQLDTASI [… (SEQ ID No 182)]: the peptide exchange yield was 50 to 75%.
Next, KYTSWYVAL [… (SEQ ID No 228)]: above 75%; TYTQDFNKF [… (SEQ ID No 208)]: 50 to 75%; LYHDIFSRL [… (SEQ ID No 271)]: above 75%.
The same measure for EYPLVINTL [… (SEQ ID No 219)]: 50 to 75%; for TYIKPISKL [… (SEQ ID No 273)]: 50 to 75%; for YYVYIMNHL [… (SEQ ID No 225)]: 50 to 75%.
The same measure for QYLENLEKL [… (SEQ ID No 224)]: 50 to 75%; for VYPWLGALL [… (SEQ ID No 177)]: above 75%.
VYGFQWRHF [… (SEQ ID No 276)]: the peptide exchange yield is above 75%.
The same measure for GFFIFNERF [… (SEQ ID No 190)]: 50 to 75%; for YFDKVVTL [YFDKVVTL (SEQ ID No 215)]: 20 to 49%; for TYTTVPRVAF [… (SEQ ID No 172)]: above 75%.
Next, IYKVGAPTI [… (SEQ ID No 185)]: 50 to 75%; WYVNGVNYF [… (SEQ ID No 189)]: 20 to 49%; QYSSVFKSL [… (SEQ ID No 216)]: above 75%.
Next, RYSTGLAGNLL [… (SEQ ID No 221)]: 50 to 75%; VYRDETGELF [… (SEQ ID No 226)]: 50 to 75%; IYDDSFIRPVTF [… (SEQ ID No 180)]: 50 to 75%.
Turning to YYLEVGKTLI [… (SEQ ID No 211)], the peptide exchange yield is above 75%.
Next, VFQNFPLLF [… (SEQ ID No 184)]: above 75%; TYIESASEL [… (SEQ ID No 279)]: 50 to 75%; KFVDSTFYL [… (SEQ ID No 282)]: above 75%.
Regarding RYPDNLKHLYL [… (SEQ ID No 280)], the peptide exchange yield is above 75%.
Next, RFHPTPLLL [… (SEQ ID No 193)]: above 75%; EYQENFLSF [… (SEQ ID No 206)]: 50 to 75%.
In turn, LYLDIINLF [… (SEQ ID No 181)] displayed a peptide exchange yield above 75%.
Next, FYSRLLQKF [… (SEQ ID No 203)]: 50 to 75%; EFGSLHLEFL [… (SEQ ID No 194)]: below 20%; EYINQGDLHEF [… (SEQ ID No 275)]: 50 to 75%.
Next, VFKASKITF [… (SEQ ID No 191)]: 50 to 75%; IFIEVFSHF [… (SEQ ID No 178)]: 50 to 75%.
The same measure for MYDSYWRQF [… (SEQ ID No 179)]: above 75%; for IFLDYEAGTLSF [… (SEQ ID No 227)]: above 75%.
As to IYTMIYRNL [… (SEQ ID No 210)], the peptide exchange yield is above 75%.
TYLRDQHFL [… (SEQ ID No 187)]: the peptide exchange yield is above 75%.
The same measure for VFTSTARAF [… (SEQ ID No 183)]: 50 to 75%; for FFPPTRQMGLLF [… (SEQ ID No 217)]: above 75%.

The values above are taken from patent publication US20170189513A1.
